Experimental findings from patent publication US20250066831 are described below.

The subject of data set [1] is V40 elastin-like polypeptide fused to CVLL.
Data set [2] has as its system ELP-CVLS (protein substrate of the in vitro farnesylation reaction).

V40 elastin-like polypeptide fused to CVLL, sequence (chain, as listed by the source): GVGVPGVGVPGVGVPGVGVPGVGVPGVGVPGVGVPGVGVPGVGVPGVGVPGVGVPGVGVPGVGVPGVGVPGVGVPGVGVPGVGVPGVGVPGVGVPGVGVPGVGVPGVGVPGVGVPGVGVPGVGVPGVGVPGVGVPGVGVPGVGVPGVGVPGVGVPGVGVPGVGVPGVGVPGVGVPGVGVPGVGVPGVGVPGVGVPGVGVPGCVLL

For the substance “geranylgeranyl transferase type I (GGTase-I) from Rattus norvegicus, heterodimer of alpha and beta subunits”, the “farnesylation on co-expression in E. coli (HPLC, MALDI-TOF MS, NMR of purified V40-Fr)” value in data set [1] is “only one farnesyl group is added to the protein at the cysteine residue located in the C-terminal CaaX motif”. “farnesyltransferase (FTase) from Rattus norvegicus, heterodimer of alpha and beta subunits”: the “in vitro farnesylation (3 µM ELP-CVLS, 0.2 µM FTase, 10 µM FPP, RP-HPLC)” value in data set [2] is “In vitro farnesylation of ELPs with the soluble transferase (produced as a translationally coupled heterodimer) indicates that the recombinantly expressed enzyme is active”.
